Laboratory results reported in patent US20240261333A1, “NOVEL TARGETS FOR ENHANCING ANTI-TUMOR IMMUNITY” (THE BROAD INSTITUTE, INC., priority 2021, published 2024).

Columns and labels:
CDSN = CDSN (UniProt Q15517); assay: co-IP, IgG control, N-FLAG B3GNT2 cell lysate, mass spectrometry
CFL1 = CFL1 (UniProt P23528); assay: as above
DEFA3 = DEFA3 (UniProt P59666); assay: as above
DNAJA2 = DNAJA2 (UniProt O60884); assay: as above
EIF4G1 = EIF4G1 (UniProt Q04637); assay: as above
EMD = EMD (UniProt P50402); assay: as above
EMD, sequence (P50402 whole entry): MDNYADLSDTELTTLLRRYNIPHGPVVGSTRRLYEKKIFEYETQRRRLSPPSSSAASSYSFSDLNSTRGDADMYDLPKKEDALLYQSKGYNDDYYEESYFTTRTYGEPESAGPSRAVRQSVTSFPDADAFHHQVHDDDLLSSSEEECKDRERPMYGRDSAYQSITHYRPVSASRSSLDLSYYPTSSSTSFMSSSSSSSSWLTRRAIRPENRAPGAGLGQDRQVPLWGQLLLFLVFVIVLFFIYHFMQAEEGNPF

HIST1H1E = HIST1H1E (UniProt P10412); assay: as above
MTDH = MTDH (UniProt Q86UE4); assay: as above
PBXIP1 = PBXIP1 (UniProt Q96AQ6); assay: as above
PBXIP1, sequence (Q96AQ6 30-731 limits assumed): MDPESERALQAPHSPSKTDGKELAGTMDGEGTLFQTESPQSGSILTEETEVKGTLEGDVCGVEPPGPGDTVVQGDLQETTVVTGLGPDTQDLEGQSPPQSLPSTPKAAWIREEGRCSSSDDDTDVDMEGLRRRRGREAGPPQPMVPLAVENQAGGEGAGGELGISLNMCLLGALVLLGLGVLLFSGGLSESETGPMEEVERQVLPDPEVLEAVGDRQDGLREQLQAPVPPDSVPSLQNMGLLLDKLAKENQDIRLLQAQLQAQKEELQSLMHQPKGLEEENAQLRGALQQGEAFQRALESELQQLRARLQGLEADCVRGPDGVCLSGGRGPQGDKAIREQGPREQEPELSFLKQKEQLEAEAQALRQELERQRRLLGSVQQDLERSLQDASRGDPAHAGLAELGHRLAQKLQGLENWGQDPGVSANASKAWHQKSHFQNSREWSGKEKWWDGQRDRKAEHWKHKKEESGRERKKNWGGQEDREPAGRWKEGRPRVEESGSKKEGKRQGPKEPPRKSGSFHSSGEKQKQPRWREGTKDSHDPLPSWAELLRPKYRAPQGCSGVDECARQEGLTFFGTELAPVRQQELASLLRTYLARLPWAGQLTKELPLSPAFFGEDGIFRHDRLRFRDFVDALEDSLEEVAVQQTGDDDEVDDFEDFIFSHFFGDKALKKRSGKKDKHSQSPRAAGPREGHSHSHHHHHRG

POF1B = POF1B (UniProt Q8WVV4); assay: as above
RPL27A = RPL27A (UniProt P46776); assay: as above
RPL35 = RPL35 (UniProt P42766); assay: as above
RPL37A = RPL37A (UniProt P61513); assay: as above
RPL5 = RPL5 (UniProt P46777); assay: as above
RPS16 = RPS16 (UniProt P62249); assay: as above
RPS18 = RPS18 (UniProt P62269); assay: as above
RPS19 = RPS19 (UniProt P39019); assay: as above
RPS2 = RPS2 (UniProt P15880); assay: as above
RPS23 = RPS23 (UniProt P62266); assay: as above
SRSF1 = SRSF1 (UniProt Q07955); assay: as above
TAGLN = TAGLN (UniProt Q01995); assay: as above
TNKS1BP1 = TNKS1BP1 (UniProt Q9C0C2); assay: as above
ARHGEF2 (human) = ARHGEF2 (human) (UniProt Q92974); assay: co-IP with control IgG, mass spectrometry; lysate of cells with C-FLAG B3GNT2
CCT7 (human) = CCT7 (human) (UniProt Q99832); assay: as above
CCT7 (human), sequence (Q99832 45-543 limits assumed): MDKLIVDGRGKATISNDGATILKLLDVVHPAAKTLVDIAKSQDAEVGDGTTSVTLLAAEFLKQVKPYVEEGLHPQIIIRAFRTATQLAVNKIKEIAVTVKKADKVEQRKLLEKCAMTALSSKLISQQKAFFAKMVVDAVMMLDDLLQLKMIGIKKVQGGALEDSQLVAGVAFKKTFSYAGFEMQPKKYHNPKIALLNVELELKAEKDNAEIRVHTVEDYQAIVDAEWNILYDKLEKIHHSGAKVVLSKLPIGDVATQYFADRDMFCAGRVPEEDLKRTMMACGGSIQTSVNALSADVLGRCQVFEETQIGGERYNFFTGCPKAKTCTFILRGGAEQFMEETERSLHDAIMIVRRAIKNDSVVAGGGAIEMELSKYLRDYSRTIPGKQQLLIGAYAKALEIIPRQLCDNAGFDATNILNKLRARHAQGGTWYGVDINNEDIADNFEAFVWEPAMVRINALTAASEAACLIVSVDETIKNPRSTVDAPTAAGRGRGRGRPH

CTHRC1 (human) = CTHRC1 (human) (UniProt Q96CG8); assay: as above
CTHRC1 (human), sequence (Q96CG8 other isoform, or with tags, fused parts or gaps limits assumed): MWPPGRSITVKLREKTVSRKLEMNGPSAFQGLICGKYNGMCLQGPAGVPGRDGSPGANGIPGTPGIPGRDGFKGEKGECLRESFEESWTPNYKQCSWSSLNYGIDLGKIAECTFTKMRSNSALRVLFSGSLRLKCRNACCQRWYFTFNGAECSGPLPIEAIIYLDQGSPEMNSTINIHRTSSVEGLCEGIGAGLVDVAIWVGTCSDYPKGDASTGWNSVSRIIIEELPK

DNAJB11 (human) = DNAJB11 (human) (UniProt Q9UBS4); assay: as above
DNAJB11 (human), sequence (Q9UBS4 23-358 limits assumed): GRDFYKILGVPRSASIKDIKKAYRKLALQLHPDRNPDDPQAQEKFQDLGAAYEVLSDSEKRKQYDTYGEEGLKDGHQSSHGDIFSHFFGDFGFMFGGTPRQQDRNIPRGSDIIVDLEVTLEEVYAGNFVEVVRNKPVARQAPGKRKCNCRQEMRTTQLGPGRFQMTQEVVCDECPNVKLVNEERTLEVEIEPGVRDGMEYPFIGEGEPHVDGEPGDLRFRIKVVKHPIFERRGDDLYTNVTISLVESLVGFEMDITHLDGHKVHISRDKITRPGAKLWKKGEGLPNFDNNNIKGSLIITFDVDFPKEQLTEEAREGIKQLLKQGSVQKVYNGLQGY

HSPD1 (human) = HSPD1 (human) (UniProt P10809); assay: as above
HSPD1 (human), sequence (P10809 27-573 limits assumed): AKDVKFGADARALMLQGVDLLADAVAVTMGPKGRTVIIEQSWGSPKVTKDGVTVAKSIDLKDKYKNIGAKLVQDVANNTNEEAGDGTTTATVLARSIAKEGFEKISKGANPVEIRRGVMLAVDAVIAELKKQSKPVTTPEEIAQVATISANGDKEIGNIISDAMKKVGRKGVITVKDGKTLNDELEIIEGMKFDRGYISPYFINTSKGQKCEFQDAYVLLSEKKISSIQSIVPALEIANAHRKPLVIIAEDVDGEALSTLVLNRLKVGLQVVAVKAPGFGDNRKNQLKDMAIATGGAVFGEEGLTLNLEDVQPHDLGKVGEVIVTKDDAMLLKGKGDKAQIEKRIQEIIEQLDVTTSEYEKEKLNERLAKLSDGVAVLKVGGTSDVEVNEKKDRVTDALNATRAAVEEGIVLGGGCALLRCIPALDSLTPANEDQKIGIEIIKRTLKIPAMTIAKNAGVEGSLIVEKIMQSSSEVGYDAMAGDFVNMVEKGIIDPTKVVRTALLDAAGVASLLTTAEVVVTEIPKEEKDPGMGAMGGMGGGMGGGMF

ILF3 (human) = ILF3 (human) (UniProt Q12906); assay: as above
MAGT1 (human) = MAGT1 (human) (UniProt Q9H0U3); assay: as above
MSN (human) = MSN (human) (UniProt P26038); assay: as above
PJA2 (human) = PJA2 (human) (UniProt O43164); assay: as above
PJA2 (human), sequence (O43164 2-708 limits assumed): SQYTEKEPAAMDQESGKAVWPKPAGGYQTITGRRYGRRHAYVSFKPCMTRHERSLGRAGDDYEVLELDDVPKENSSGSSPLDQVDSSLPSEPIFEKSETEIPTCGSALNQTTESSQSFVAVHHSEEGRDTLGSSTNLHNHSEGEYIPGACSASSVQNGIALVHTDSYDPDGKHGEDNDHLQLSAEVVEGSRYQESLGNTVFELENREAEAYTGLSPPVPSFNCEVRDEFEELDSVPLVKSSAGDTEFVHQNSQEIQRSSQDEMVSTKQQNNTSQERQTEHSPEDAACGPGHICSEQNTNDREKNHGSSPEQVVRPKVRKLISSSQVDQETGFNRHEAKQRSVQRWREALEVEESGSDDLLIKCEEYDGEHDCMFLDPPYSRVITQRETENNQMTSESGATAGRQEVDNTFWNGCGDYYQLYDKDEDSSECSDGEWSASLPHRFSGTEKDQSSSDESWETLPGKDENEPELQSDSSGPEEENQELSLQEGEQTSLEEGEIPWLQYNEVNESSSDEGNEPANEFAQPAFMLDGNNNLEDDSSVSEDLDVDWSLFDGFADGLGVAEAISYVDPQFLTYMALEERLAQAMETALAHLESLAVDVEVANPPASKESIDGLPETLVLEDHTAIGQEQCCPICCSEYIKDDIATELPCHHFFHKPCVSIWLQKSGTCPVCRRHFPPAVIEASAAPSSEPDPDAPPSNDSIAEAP

RPL9 (human) = RPL9 (human) (UniProt P32969); assay: as above
RPS27 (human) = RPS27 (human) (UniProt P42677); assay: as above
RPS4X (human) = RPS4X (human) (UniProt P62701); assay: as above
RRP12 (human) = RRP12 (human) (UniProt Q5JTH9); assay: as above
SDF4 (human) = SDF4 (human) (UniProt Q9BRK5); assay: as above
SDF4 (human), sequence (Q9BRK5 37-362 limits assumed): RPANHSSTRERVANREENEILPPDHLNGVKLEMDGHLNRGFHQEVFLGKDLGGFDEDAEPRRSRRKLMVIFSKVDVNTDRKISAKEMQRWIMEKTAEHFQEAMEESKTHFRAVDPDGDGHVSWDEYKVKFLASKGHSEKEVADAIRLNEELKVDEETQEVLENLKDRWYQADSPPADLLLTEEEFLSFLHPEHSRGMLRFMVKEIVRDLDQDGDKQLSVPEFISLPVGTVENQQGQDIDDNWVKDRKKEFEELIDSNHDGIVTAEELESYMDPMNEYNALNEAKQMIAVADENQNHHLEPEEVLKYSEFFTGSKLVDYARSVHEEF

SPRR1A (human) = SPRR1A (human) (UniProt P35321); assay: as above
SPRR1A (human), sequence (P35321 whole entry): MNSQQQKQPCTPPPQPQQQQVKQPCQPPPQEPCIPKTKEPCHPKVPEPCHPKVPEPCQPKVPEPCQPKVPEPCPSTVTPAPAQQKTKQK

STAU2 (human) = STAU2 (human) (UniProt Q9NUL3); assay: as above
UGGT1 (human) = UGGT1 (human) (UniProt Q9NYU2); assay: as above

Measured: co-IP mass spectrometry count

CFL1, sequence (P23528 2-166 limits assumed): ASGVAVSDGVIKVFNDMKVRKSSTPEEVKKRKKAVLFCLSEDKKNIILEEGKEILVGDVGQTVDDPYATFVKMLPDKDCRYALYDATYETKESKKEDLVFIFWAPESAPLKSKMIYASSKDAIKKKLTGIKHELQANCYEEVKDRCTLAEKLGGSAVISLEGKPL
CDSN, sequence (Q15517 33-529 limits assumed): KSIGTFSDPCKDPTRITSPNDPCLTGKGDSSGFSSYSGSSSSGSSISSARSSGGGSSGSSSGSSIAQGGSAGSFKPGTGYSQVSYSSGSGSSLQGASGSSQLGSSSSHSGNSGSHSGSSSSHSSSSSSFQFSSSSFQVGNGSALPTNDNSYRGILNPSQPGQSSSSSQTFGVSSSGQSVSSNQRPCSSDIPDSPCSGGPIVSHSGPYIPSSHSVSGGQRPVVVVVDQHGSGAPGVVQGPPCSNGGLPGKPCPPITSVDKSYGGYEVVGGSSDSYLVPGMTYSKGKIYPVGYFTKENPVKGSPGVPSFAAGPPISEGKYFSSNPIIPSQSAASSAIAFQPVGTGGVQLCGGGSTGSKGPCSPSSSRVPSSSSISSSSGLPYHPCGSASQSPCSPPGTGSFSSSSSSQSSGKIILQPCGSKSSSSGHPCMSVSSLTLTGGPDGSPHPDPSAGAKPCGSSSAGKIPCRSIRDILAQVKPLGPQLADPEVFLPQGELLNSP
DNAJA2, sequence (O60884 1-409 limits assumed): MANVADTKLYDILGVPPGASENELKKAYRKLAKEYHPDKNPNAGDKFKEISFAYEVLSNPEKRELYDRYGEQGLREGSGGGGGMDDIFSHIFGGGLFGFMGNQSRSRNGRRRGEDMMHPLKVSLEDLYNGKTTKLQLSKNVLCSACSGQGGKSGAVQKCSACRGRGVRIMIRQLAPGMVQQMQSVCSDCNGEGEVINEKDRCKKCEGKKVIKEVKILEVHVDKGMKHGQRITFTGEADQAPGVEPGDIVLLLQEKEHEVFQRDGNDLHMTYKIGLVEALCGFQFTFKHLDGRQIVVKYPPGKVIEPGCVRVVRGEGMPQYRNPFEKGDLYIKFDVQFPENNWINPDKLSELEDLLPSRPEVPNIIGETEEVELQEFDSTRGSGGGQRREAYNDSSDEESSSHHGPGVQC
DEFA3, sequence (P59666 65-94 limits assumed): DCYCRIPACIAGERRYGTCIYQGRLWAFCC

IgG control (Millipore Sigma 12-371) (antibody)
6: RPS23
5: RPS19 | SRSF1
4: RPL37A | TNKS1BP1
3: CFL1 | DEFA3 | RPL27A
7: RPS4X (human)
0: CDSN | DNAJA2 | EMD | MTDH | PBXIP1 | POF1B | RPL5 | TAGLN | ARHGEF2 (human) | CCT7 (human) | CTHRC1 (human) | DNAJB11 (human) | ILF3 (human) | MAGT1 (human) | MSN (human) | PJA2 (human) | RPL9 (human) | RPS27 (human) | RRP12 (human) | SDF4 (human) | SPRR1A (human) | STAU2 (human) | UGGT1 (human)
2: EIF4G1 | HIST1H1E | RPL35 | HSPD1 (human)
10: RPS16 | RPS2
11: RPS18
